According to publication PMC11273545:
Where “and” joins values, the source holds several entries; their conditions need not be identical. Identical values can stand only once.

What was measured:
[1] = molecular target: multimeric recombinant RBD protein (SARS-CoV-2 S protein residues 331-589 linked to the trimerization region of bacteriophage T4 and six histidines) (SARS-CoV-2 (Wuhan strain) | bacteriophage T4) (UniProt P0DTC2); assay: SEC; Superdex 200 column (30 x 1 cm) in TBS, 0.4 mL/min; calibrated with BSA (66 and 132 kDa), carbonic anhydrase (30 kDa) and beta-amylase (200 kDa); 135 kDa fractions pooled and re-applied
[2] = molecular target: multimeric recombinant RBD protein (SARS-CoV-2 S protein residues 331-589 linked to the trimerization region of bacteriophage T4 and six histidines) (SARS-CoV-2 (Wuhan strain) | bacteriophage T4) (UniProt P0DTC2); assay: cross-linking

Q: Which results are given for “multimeric recombinant RBD protein (SARS-CoV-2 S protein residues 331-589 linked to the trimerization region of bacteriophage T4 and six histidines) (from UniProt P0DTC2 331-589)”?
A: stoichiometry N [1]: 3; stoichiometry N [2]: 3 and 6
